Numbering of substitutions follows the chain as printed.
T1: mouse FcγRII extracellular domain, C-terminally His-tagged (mouse, UniProt P08101 30-210)
T1 construct: the whole entry is named; also called mFcγRII; mFcgRII
T1 sequence: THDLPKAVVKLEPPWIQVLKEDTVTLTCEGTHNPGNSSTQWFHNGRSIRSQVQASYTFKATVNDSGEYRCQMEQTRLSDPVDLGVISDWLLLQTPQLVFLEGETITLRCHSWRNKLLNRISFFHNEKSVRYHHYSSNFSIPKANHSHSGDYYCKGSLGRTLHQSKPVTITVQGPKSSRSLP

T2: mouse FcγRIII extracellular domain, C-terminally His-tagged (mouse, UniProt P08508 31-215)
T2 construct: the whole entry is named; also called mFcγRIII; mFcgRIII
T2 chain: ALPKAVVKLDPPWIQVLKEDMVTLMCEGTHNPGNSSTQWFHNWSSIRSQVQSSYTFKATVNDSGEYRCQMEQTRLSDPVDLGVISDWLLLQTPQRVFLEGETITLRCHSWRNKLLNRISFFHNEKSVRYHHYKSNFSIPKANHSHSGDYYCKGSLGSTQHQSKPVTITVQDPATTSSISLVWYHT

B1: H237-MB641/MRAL-k0 (antibody, mouse IgG1, kappa)
heavy: QVQLQESGPGLVKPSETLSLTCAVSGHSISHDHAWSWVRQPPGEGLEWIGFISYSGITNYNPSLQGRVTISRDNSKNTLYLQMNSLRAEDTAVYYCARSLARTTAMDYWGEGTLVTVSSAKTTPPSVYPLAPGSAAQTNSMVTLGCLVKGYFPEPVTVTWNSGSLSSGVHTFPAVLQSDLYTLSSSVTVPSSTWPSETVTCNVAHPASSTKVDKKIVPRDCGCKPCICEAYEVEYVFIFPPKPKDVLTITLTPKVTCVVVDISKDDPEVQFSWFVDDVEVHTAQTQPREEQFNSTFRSVSELPIMHQDWLNGKEFKCRVNSAAFPAPIEKTISKTKGRPKAPQVYTIPPPKEQMAKDKVSLTCMITDFFPEDITVEWQWNGQPAENYKNTQPIMDTDGSYFVYSKLNVQKSNWEAGNTFTCSVLHEGLHNHHTEKSLSHSPGK
light: not shown
notes: copies: 2 + 2
B2: H237-MB654/MRAL-k0 (antibody, mouse IgG1, kappa)
heavy: B1 heavy with A230V, Y235F
light: not shown
notes: copies: 2 + 2
B3: H237-MB652/MRAL-k0 (antibody, mouse IgG1, kappa)
heavy: B1 heavy with A230N, Y235F
light: not shown
notes: copies: 2 + 2
B4: H237-MB644/MRAL-k0 (antibody, mouse IgG1, kappa)
heavy: B1 heavy with A230T
light: not shown
notes: copies: 2 + 2
B5: H237-MB645/MRAL-k0 (antibody, mouse IgG1, kappa)
heavy: B1 heavy with A230V
light: not shown
notes: copies: 2 + 2
B6: H237-MB647/MRAL-k0 (antibody, mouse IgG1, kappa)
heavy: B1 heavy with E229I, A230P, Y231A
light: not shown
notes: copies: 2 + 2
B7: H237-MB793/MRAL-k0 (antibody, mouse IgG1, kappa)
heavy: B1 heavy with E229Q, A230P, Y231N, Y235I
light: not shown
notes: copies: 2 + 2
B8: H237-MB646/MRAL-k0 (antibody, mouse IgG1, kappa)
heavy: B1 heavy with A230P, Y231A
light: not shown
notes: copies: 2 + 2
B9: H237-MB709/MRAL-k0 (antibody, mouse IgG1, kappa)
heavy: B1 heavy with A230P, Y231A, Y235T
light: not shown
notes: copies: 2 + 2
B10: H237-MB653/MRAL-k0 (antibody, mouse IgG1, kappa)
heavy: B1 heavy with A230T, Y235F
light: not shown
notes: copies: 2 + 2
B11: H237-MB719/MRAL-k0 (antibody, mouse IgG1, kappa)
heavy: B1 heavy with A230P, Y231N, Y235Q
light: not shown
notes: copies: 2 + 2
B12: H237-MB705/MRAL-k0 (antibody, mouse IgG1, kappa)
heavy: B1 heavy with A230P, Y231A, Y235G
light: not shown
notes: copies: 2 + 2
B13: H237-MB716/MRAL-k0 (antibody, mouse IgG1, kappa)
heavy: B1 heavy with A230P, Y231N, Y235I
light: not shown
notes: copies: 2 + 2
B14: H237-MB649/MRAL-k0 (antibody, mouse IgG1, kappa)
heavy: B1 heavy with E229Q, A230P, Y231N
light: not shown
notes: copies: 2 + 2
B15: H237-MB648/MRAL-k0 (antibody, mouse IgG1, kappa)
heavy: B1 heavy with A230P, Y231N
light: not shown
notes: copies: 2 + 2
B16: H237-MB714/MRAL-k0 (antibody, mouse IgG1, kappa)
heavy: B1 heavy with A230P, Y231N, Y235G
light: not shown
notes: copies: 2 + 2
B17: H237-MB710/MRAL-k0 (antibody)
heavy: B1 heavy with A230P, Y231A, Y235Q
light: not shown
notes: copies: 2 + 2
B18: H237-MB658/MRAL-k0 (antibody, mouse IgG1, kappa)
heavy: B1 heavy with E229Q, A230P, Y231N, Y235F
light: not shown
notes: copies: 2 + 2
B19: H237-MB655/MRAL-k0 (antibody, mouse IgG1, kappa)
heavy: B1 heavy with A230P, Y231A, Y235F
light: not shown
notes: copies: 2 + 2
B20: H237-MB715/MRAL-k0 (antibody, mouse IgG1, kappa)
heavy: B1 heavy with A230P, Y231N, Y235V
light: not shown
notes: copies: 2 + 2
B21: H237-MB657/MRAL-k0 (antibody, mouse IgG1, kappa)
heavy: B1 heavy with A230P, Y231N, Y235F
light: not shown
notes: copies: 2 + 2
B22: H237-MB642/MRAL-k0 (antibody, mouse IgG1, kappa)
heavy: B1 heavy with A230D
light: not shown
notes: copies: 2 + 2
B23: H237-MB643/MRAL-k0 (antibody, mouse IgG1, kappa)
heavy: B1 heavy with A230N
light: not shown
notes: copies: 2 + 2
B24: H237-MB704/MRAL-k0 (antibody, mouse IgG1, kappa)
heavy: B1 heavy with A230P, Y231A, Y235A
light: not shown
notes: copies: 2 + 2
B25: H237-MB650/MRAL-k0 (antibody, mouse IgG1, kappa)
heavy: B1 heavy with Y235F
light: not shown
notes: copies: 2 + 2
B26: H237-MB713/MRAL-k0 (antibody, mouse IgG1, kappa)
heavy: B1 heavy with A230P, Y231N, Y235A
light: not shown
notes: copies: 2 + 2
B27: H237-MB718/MRAL-k0 (antibody, mouse IgG1, kappa)
heavy: B1 heavy with A230P, Y231N, Y235T
light: not shown
notes: copies: 2 + 2
B28: H237-MB651/MRAL-k0 (antibody, mouse IgG1, kappa)
heavy: B1 heavy with A230D, Y235F
light: not shown
notes: copies: 2 + 2
B29: H237-MB708/MRAL-k0 (antibody, mouse IgG1, kappa)
heavy: B1 heavy with A230P, Y231A, Y235P
light: not shown
notes: copies: 2 + 2
B30: H237-MB717/MRAL-k0 (antibody, mouse IgG1, kappa)
heavy: B1 heavy with A230P, Y231N, Y235P
light: not shown
notes: copies: 2 + 2

Columns and labels:
[1] = target: T1, mouse FcγRII extracellular domain, …; test: SPR Biacore T200, KD ratio
Protocol: (§1) Each altered antibody was analyzed for its interaction with each Fcγ receptor prepared above using Biacore T100 (GE Healthcare Japan Corp.), Biacore T200 (GE Healthcare Japan Corp.), Biacore A100, or Biacore 4000. The running buffer used was HBS-EP+ (GE Healthcare Japan Corp.). The assay temperature was set to 25° C. The sensor chips used were chips prepared by immobilizing Protein L (ACTIGEN or BioVision) onto Series S Sensor Chip CM5 (GE Healthcare Japan Corp.) or Series S Sensor Chip CM4 (GE Healthcare Japan Corp.) by the amine coupling method.
(§2) In order to calculate the KD value of each altered antibody for FcγR, kinetic analysis was conducted according to the following method: first, the antibody of interest was captured onto any of these chips and allowed to interact with mFcγR diluted with a running buffer. For the obtained sensorgram, the assay results were globally fit into the 1:1 Langmuir binding model using Biacore Evaluation Software to calculate an association rate constant ka (L/mol/s) and a dissociation rate constant kd (1/s). From these values, the dissociation constant KD (mol/L) was calculated.

[2] = target: T2, mouse FcγRIII extracellular domain, …; test: SPR Biacore T200, KD ratio
Protocol: as §1, §2

Row | Binder | relative mFcγRII-binding activity (mIgG1 = 1) [1] | relative mFcγRIII-binding activity (mIgG1 = 1) [2]
1 | B1 | 1.47 fold | 0.13 fold
2 | B2 | 0.27 fold | 0.07 fold
3 | B3 | 0.28 fold | 0.06 fold
4 | B4 | 4.55 fold | 0.3 fold
5 | B5 | 1.17 fold | 0.2 fold
6 | B6 | 1.05 fold | 0.1 fold
7 | B7 | 1.17 fold | 0.05 fold
8 | B8 | 4.38 fold | 0.15 fold
9 | B9 | 0.61 fold | 0.04 fold
10 | B10 | 0.41 fold | 0.1 fold
11 | B11 | 70.4 fold | 2.31 fold
12 | B12 | 8.71 fold | 0.75 fold
13 | B13 | 3.98 fold | 0.05 fold
14 | B14 | 3.89 fold | 0.51 fold
15 | B15 | 10.8 fold | 0.64 fold
16 | B16 | 14.2 fold | 1.61 fold
17 | B17 | 50.8 fold | 1.22 fold
18 | B18 | 0.51 fold | 0.06 fold
19 | B19 | 0.4 fold | 0.06 fold
20 | B20 | 0.89 fold | 0.02 fold
21 | B21 | 1.77 fold | 0.08 fold
22 | B22 | 1.87 fold | 0.08 fold
23 | B23 | 1.66 fold | 0.14 fold
24 | B24 | 14.1 fold | 0.87 fold
25 | B25 | 0.24 fold | 0.05 fold
26 | B26 | 23.5 fold | 2.5 fold
27 | B27 | 0.85 fold | 0.05 fold
28 | B28 | 0.3 fold | 0.04 fold
29 | B29 | 0.28 fold | 0.03 fold
30 | B30 | 0.41 fold | 0.03 fold
